The values below come from patent US20140227729.

The target in data set [1] is T1, Ndm, two-subunit N-demethylase component purified from Pseudomonas putida CBB5 (UniProt H9N289).
T1 sequence 1: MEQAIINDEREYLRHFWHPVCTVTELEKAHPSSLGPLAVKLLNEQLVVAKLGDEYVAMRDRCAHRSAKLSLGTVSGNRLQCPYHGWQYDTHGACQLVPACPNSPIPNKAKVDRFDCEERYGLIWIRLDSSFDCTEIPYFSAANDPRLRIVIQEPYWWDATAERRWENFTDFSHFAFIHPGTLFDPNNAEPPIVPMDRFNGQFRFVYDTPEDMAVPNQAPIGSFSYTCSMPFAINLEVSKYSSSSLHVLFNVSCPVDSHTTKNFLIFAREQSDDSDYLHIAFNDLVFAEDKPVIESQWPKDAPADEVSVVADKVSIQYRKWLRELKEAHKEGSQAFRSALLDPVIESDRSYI
T1 sequence 2: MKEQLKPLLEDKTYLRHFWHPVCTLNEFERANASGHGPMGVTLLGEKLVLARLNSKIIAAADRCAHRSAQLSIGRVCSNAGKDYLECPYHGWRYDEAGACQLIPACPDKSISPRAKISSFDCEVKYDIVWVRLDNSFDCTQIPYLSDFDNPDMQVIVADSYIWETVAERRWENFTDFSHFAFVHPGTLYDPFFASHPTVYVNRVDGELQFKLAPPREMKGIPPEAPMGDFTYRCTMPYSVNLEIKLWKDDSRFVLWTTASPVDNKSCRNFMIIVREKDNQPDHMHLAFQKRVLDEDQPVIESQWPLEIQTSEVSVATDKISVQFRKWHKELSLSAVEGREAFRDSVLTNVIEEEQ

In the next data set the target is T2, NdmA-His6, H9N289.
T2 chain: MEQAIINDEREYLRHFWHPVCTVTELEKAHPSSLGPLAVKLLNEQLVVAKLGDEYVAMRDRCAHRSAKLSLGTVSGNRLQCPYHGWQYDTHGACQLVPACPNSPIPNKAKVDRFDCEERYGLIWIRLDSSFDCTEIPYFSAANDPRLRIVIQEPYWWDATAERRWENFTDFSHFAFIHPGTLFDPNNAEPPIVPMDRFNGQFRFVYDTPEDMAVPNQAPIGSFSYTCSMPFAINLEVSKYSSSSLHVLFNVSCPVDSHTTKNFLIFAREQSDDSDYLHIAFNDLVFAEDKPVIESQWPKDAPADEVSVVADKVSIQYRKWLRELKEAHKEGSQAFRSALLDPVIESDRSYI

Another data set concerns the target T3, NdmB-His6, H9N290.
T3 chain: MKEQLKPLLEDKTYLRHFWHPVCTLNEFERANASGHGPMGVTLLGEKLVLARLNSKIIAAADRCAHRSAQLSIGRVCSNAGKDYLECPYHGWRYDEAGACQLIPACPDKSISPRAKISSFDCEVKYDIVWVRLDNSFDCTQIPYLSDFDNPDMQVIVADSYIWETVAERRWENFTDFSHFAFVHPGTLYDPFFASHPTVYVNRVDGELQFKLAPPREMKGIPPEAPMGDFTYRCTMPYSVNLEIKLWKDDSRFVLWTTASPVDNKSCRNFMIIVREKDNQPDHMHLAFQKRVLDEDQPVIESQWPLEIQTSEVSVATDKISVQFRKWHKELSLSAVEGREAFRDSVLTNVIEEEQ

Data set [2] addresses T4, Ndm, two-subunit N-demethylase component purified from Pseudomonas putida CBB5, H9N289.
T4 chain 1: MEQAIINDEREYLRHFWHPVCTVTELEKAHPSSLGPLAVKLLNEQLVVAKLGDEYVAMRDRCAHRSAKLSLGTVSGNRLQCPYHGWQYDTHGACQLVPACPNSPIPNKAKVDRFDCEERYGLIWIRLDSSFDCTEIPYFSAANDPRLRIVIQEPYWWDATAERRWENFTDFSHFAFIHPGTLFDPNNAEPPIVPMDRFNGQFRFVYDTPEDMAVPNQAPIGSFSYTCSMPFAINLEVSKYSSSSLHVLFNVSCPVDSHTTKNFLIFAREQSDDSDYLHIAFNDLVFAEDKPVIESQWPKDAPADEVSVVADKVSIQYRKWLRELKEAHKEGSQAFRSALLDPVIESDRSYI
T4 chain 2: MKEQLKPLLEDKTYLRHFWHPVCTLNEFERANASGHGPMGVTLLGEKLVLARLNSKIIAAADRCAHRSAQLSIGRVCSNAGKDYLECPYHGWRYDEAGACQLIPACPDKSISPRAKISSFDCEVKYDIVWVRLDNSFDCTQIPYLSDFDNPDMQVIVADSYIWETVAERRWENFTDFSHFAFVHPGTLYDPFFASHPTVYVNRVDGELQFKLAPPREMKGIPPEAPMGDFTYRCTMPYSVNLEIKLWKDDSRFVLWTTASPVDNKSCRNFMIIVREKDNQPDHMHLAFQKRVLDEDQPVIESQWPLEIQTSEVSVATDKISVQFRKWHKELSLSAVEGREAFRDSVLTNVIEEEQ

On to “Ccr, reductase component with cytochrome c reductase activity (partially purified fraction from Pseudomonas putida CBB5)”, for which the N-demethylase activity entry in data set [1] was “No N-demethylase activity was observed when purified Ndm was assayed without the Ccr fraction”.

B1: His6-NdmD (protein)
chain: HHHHHHSSGLVPRGSHMNKLDVNQWFPIATTEDLPKRHVFHATLLGQEMAIWRDDSGSVNAWENRCPHRGLNTLGANTGNELRCQYHGWTYESGTGGCTFVPAHRDAPPPNAARVNTFPVREKHGFIWTTLGQPPGEPISILDDAQLVNAVKTNLHSVVIDADIDGVVSVLRQNLSAFIDVFGAASAEDLHLKSMLQDRGILVTRSGSIAIHFYMQRSTISKCVVHAQVLTPGRPGYELQKNYSYAMNVIRRAAEAVATDLISITDISDQTIEKLEVVRENMTKAPPTHYICEVVTRTQETGDINSYWLKPIGYPLPAFSPGMHISITTPEGSIRQYSLVNGPDERESFIIGVKKEIGSRGGSRSMHEDVKVGTQLKVTLPRNGFPLVQTRKHPILVAGGIGITPILCMAGALDQQGSSYEIHYFARAFEHVPFQDRLTALGDRLNVHLGLGPDETRAKLPDIMEIHNAQDVDVYTCGPQPMIETVSAVALAHGIAEESIRFEFFSKKNDVPVSDEEYEVELKKTGQIFTVSPGSTLLQACLDNDVRIEASCEQGVCGTCITPVVSGDLEHHDTYLSKKERESGKWIMPCVSRCKSKKIVLDL
As for B1, the “N-demethylation of caffeine to theobromine (HPLC)” value in the data set with NdmA-His6, H9N289 is “when NdmA-His6 was incubated with His6-NdmD, caffeine, NADH, and exogenous Fe^2+, caffeine was stoichiometrically demethylated at N1 to theobromine”. For the same molecule, the “N-demethylation of theobromine to 7-methylxanthine (HPLC)” value with NdmB-His6, H9N290 is “NdmB-His6 with His6-NdmD, theobromine, NADH, and Fe^2+ resulted in stoichiometric demethylation at N3 of theobromine to 7-methylxanthine”.

B2: Reductase of Pseudomonas sp. 9816 naphthalene dioxygenase (protein)
chain: MELLIQPNNRIIPFSAGANLLEVLRENGVAISYSCLSGRCGTCRCRVIDGSVIDSGAENGQSNLTDKQYVLACQSVLTGNCAIEVPEADEIVTHPARIIKGTVVAVESPTHDIRRLRVRLSKPFEFSPGQYATLQFSPEHARPYSMAGLPDDQEMEFHIRKVPGGRVTEYVFEHVREGTSIKLSGPLGTAYLRQKHTGPMLCVGGGTGLAPVLSIVRGALKSGMTNPILLYFGVRSQQDLYDAERLHKLAADHPQLTVHTVIATGPINEGQRAGLITDVIEKDILSLAGWRAYLCGAPAMVEALCTVTKHLGISPEHIYADAFYPGGI
In the case of B2, the N-demethylase activity result in data set [2] was “Ndm did not function in the presence of the reductase and ferredoxin components of Pseudomonas sp. 9816 naphthalene dioxygenase”.

B3: Spinach ferredoxin reductase (protein)
chain: QIASDVEAPPPAPAKVEKHSKKMEEGITVNKFKPKTPYVGRCLLNTKITGDDAPGETWHMVFSHEGEIPYREGQSVGVIPDGEDKNGKPHKLRLYSIASSALGDFGDAKSVSLCVKRLIYTNDAGETIKGVCSNFLCDLKPGAEVKLTGPVGKEMLMPKDPNATIIMLGTGTGIAPFRSFLWKMFFEKHDDYKFNGLAWLFLGVPTSSSLLYKEEFEKMKEKAPDNFRLDFAVSREQTNEKGEKMYIQTRMAQYAVELWEMLKKDNTYFYMCGLKGMEKGIDDIMVSLAAAEGIDWIEYKRQLKKAEQWNVEVY
B3: in data set [2], the N-demethylase activity result is listed as “Ndm did not couple with ferredoxin reductase plus ferredoxin from spinach”.
